Measured values taken from patent US20180009871A1 (INTARCIA THERAPEUTICS, published 2018).
Where no end group is shown, it is not given here. [ ]: non-standard residue; d: D form. Aib = CC(C)(N)C(=O)O

Experiments:
[1] = molecular target: human GLP-1 receptor (GLP-1R) (human, UniProt P43220 24-463); test: cell-based or functional assay
[2] = molecular target: human glucagon receptor (GCGR) (human, UniProt P47871 26-477); test: cell-based or functional assay

Chain of human GLP-1 receptor (GLP-1R) (P43220 24-463): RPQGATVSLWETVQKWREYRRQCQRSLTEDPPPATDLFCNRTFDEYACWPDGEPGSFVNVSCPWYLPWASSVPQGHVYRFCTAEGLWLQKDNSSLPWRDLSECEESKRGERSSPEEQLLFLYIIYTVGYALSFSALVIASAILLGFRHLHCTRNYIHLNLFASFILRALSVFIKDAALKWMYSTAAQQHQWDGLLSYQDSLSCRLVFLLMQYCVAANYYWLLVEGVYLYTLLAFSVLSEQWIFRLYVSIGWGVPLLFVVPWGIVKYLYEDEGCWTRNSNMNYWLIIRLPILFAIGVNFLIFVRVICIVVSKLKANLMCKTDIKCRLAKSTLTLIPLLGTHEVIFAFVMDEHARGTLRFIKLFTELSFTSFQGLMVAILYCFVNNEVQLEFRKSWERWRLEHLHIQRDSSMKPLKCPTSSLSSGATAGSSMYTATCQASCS

B1: Compound A63 (peptide)
peptide: YTHGTFTSDYSKYLDSARAQEFVKWLEDEPSSGAPPPS-OH
- hGLP1 pEC50 (cAMP) [1]: < 9 pEC50
- hGCGR pEC50 (cAMP) [2]: 10.4 pEC50

B2: Compound A62 (peptide)
peptide: YTHGTFTSDYSKYLD[Aib]KRAQEFV[Aib]WLEDEPSSGAPPPS-OH
modifications: N-terminus assumed
SMILES: CC(C)C[C@H](NC(=O)[C@H](Cc1ccc(O)cc1)NC(=O)[C@H](CCCCN)NC(=O)[C@H](CO)NC(=O)[C@H](Cc1ccc(O)cc1)NC(=O)[C@H](CC(=O)O)NC(=O)[C@H](CO)NC(=O)[C@@H](NC(=O)[C@H](Cc1ccccc1)NC(=O)[C@@H](NC(=O)CNC(=O)[C@H](Cc1c[nH]cn1)NC(=O)[C@@H](NC(=O)[C@@H](N)Cc1ccc(O)cc1)[C@@H](C)O)[C@@H](C)O)[C@@H](C)O)C(=O)N[C@@H](CC(=O)O)C(=O)NC(C)(C)C(=O)N[C@@H](CCCCN)C(=O)N[C@@H](CCCNC(=N)N)C(=O)N[C@@H](C)C(=O)N[C@@H](CCC(N)=O)C(=O)N[C@@H](CCC(=O)O)C(=O)N[C@@H](Cc1ccccc1)C(=O)N[C@H](C(=O)NC(C)(C)C(=O)N[C@@H](Cc1c[nH]c2ccccc12)C(=O)N[C@@H](CC(C)C)C(=O)N[C@@H](CCC(=O)O)C(=O)N[C@@H](CC(=O)O)C(=O)N[C@@H](CCC(=O)O)C(=O)N1CCC[C@H]1C(=O)N[C@@H](CO)C(=O)N[C@@H](CO)C(=O)NCC(=O)N[C@@H](C)C(=O)N1CCC[C@H]1C(=O)N1CCC[C@H]1C(=O)N1CCC[C@H]1C(=O)N[C@@H](CO)C(=O)O)C(C)C
- hGLP1 pEC50 (cAMP) [1]: < 9 pEC50
- hGCGR pEC50 (cAMP) [2]: 11.5 pEC50

B3: Compound A61 (peptide)
peptide: YSHGTFTSDYSKYLDSARAQEFVKWLEDEPSSGKPPPS-OH
- hGLP1 pEC50 (cAMP) [1]: < 9 pEC50
- hGCGR pEC50 (cAMP) [2]: 11.4 pEC50

B4: Compound A64 (peptide)
peptide: YTHGTFTSDYSKYLD[Aib]ARAQEFV[Aib]WLEDEPSSGAPPPS-OH
modifications: N-terminus assumed
SMILES: CC(C)C[C@H](NC(=O)[C@H](Cc1ccc(O)cc1)NC(=O)[C@H](CCCCN)NC(=O)[C@H](CO)NC(=O)[C@H](Cc1ccc(O)cc1)NC(=O)[C@H](CC(=O)O)NC(=O)[C@H](CO)NC(=O)[C@@H](NC(=O)[C@H](Cc1ccccc1)NC(=O)[C@@H](NC(=O)CNC(=O)[C@H](Cc1c[nH]cn1)NC(=O)[C@@H](NC(=O)[C@@H](N)Cc1ccc(O)cc1)[C@@H](C)O)[C@@H](C)O)[C@@H](C)O)C(=O)N[C@@H](CC(=O)O)C(=O)NC(C)(C)C(=O)N[C@@H](C)C(=O)N[C@@H](CCCNC(=N)N)C(=O)N[C@@H](C)C(=O)N[C@@H](CCC(N)=O)C(=O)N[C@@H](CCC(=O)O)C(=O)N[C@@H](Cc1ccccc1)C(=O)N[C@H](C(=O)NC(C)(C)C(=O)N[C@@H](Cc1c[nH]c2ccccc12)C(=O)N[C@@H](CC(C)C)C(=O)N[C@@H](CCC(=O)O)C(=O)N[C@@H](CC(=O)O)C(=O)N[C@@H](CCC(=O)O)C(=O)N1CCC[C@H]1C(=O)N[C@@H](CO)C(=O)N[C@@H](CO)C(=O)NCC(=O)N[C@@H](C)C(=O)N1CCC[C@H]1C(=O)N1CCC[C@H]1C(=O)N1CCC[C@H]1C(=O)N[C@@H](CO)C(=O)O)C(C)C
- hGLP1 pEC50 (cAMP) [1]: < 9 pEC50
- hGCGR pEC50 (cAMP) [2]: 10.7 pEC50

B5: Compound A60 (peptide)
peptide: YTHGTFTSDYSKYLD[Aib]KRAQEFV[Aib]WLEDEPSSGKPPPS-OH
modifications: N-terminus assumed
SMILES: CC(C)C[C@H](NC(=O)[C@H](Cc1ccc(O)cc1)NC(=O)[C@H](CCCCN)NC(=O)[C@H](CO)NC(=O)[C@H](Cc1ccc(O)cc1)NC(=O)[C@H](CC(=O)O)NC(=O)[C@H](CO)NC(=O)[C@@H](NC(=O)[C@H](Cc1ccccc1)NC(=O)[C@@H](NC(=O)CNC(=O)[C@H](Cc1c[nH]cn1)NC(=O)[C@@H](NC(=O)[C@@H](N)Cc1ccc(O)cc1)[C@@H](C)O)[C@@H](C)O)[C@@H](C)O)C(=O)N[C@@H](CC(=O)O)C(=O)NC(C)(C)C(=O)N[C@@H](CCCCN)C(=O)N[C@@H](CCCNC(=N)N)C(=O)N[C@@H](C)C(=O)N[C@@H](CCC(N)=O)C(=O)N[C@@H](CCC(=O)O)C(=O)N[C@@H](Cc1ccccc1)C(=O)N[C@H](C(=O)NC(C)(C)C(=O)N[C@@H](Cc1c[nH]c2ccccc12)C(=O)N[C@@H](CC(C)C)C(=O)N[C@@H](CCC(=O)O)C(=O)N[C@@H](CC(=O)O)C(=O)N[C@@H](CCC(=O)O)C(=O)N1CCC[C@H]1C(=O)N[C@@H](CO)C(=O)N[C@@H](CO)C(=O)NCC(=O)N[C@@H](CCCCN)C(=O)N1CCC[C@H]1C(=O)N1CCC[C@H]1C(=O)N1CCC[C@H]1C(=O)N[C@@H](CO)C(=O)O)C(C)C
- hGLP1 pEC50 (cAMP) [1]: < 9 pEC50
- hGCGR pEC50 (cAMP) [2]: 11.3 pEC50

B6: Compound A65 (peptide)
peptide: YSHGTFTSDYSKYLD[Aib]KRAQEFV[Aib]WLEDEPKSKEPPPS-NH2
modifications: N-terminus assumed
SMILES: CC(C)C[C@H](NC(=O)[C@H](Cc1ccc(O)cc1)NC(=O)[C@H](CCCCN)NC(=O)[C@H](CO)NC(=O)[C@H](Cc1ccc(O)cc1)NC(=O)[C@H](CC(=O)O)NC(=O)[C@H](CO)NC(=O)[C@@H](NC(=O)[C@H](Cc1ccccc1)NC(=O)[C@@H](NC(=O)CNC(=O)[C@H](Cc1c[nH]cn1)NC(=O)[C@H](CO)NC(=O)[C@@H](N)Cc1ccc(O)cc1)[C@@H](C)O)[C@@H](C)O)C(=O)N[C@@H](CC(=O)O)C(=O)NC(C)(C)C(=O)N[C@@H](CCCCN)C(=O)N[C@@H](CCCNC(=N)N)C(=O)N[C@@H](C)C(=O)N[C@@H](CCC(N)=O)C(=O)N[C@@H](CCC(=O)O)C(=O)N[C@@H](Cc1ccccc1)C(=O)N[C@H](C(=O)NC(C)(C)C(=O)N[C@@H](Cc1c[nH]c2ccccc12)C(=O)N[C@@H](CC(C)C)C(=O)N[C@@H](CCC(=O)O)C(=O)N[C@@H](CC(=O)O)C(=O)N[C@@H](CCC(=O)O)C(=O)N1CCC[C@H]1C(=O)N[C@@H](CCCCN)C(=O)N[C@@H](CO)C(=O)N[C@@H](CCCCN)C(=O)N[C@@H](CCC(=O)O)C(=O)N1CCC[C@H]1C(=O)N1CCC[C@H]1C(=O)N1CCC[C@H]1C(=O)N[C@@H](CO)C(N)=O)C(C)C
- hGLP1 pEC50 (cAMP) [1]: < 9 pEC50
- hGCGR pEC50 (cAMP) [2]: 12.5 pEC50

B7: Compound A59 (peptide)
peptide: YSHGTFTSDYSKYLD[Aib]KRAQEFV[Aib]WLEDEPSSKQPPPS-OH
modifications: N-terminus assumed
SMILES: CC(C)C[C@H](NC(=O)[C@H](Cc1ccc(O)cc1)NC(=O)[C@H](CCCCN)NC(=O)[C@H](CO)NC(=O)[C@H](Cc1ccc(O)cc1)NC(=O)[C@H](CC(=O)O)NC(=O)[C@H](CO)NC(=O)[C@@H](NC(=O)[C@H](Cc1ccccc1)NC(=O)[C@@H](NC(=O)CNC(=O)[C@H](Cc1c[nH]cn1)NC(=O)[C@H](CO)NC(=O)[C@@H](N)Cc1ccc(O)cc1)[C@@H](C)O)[C@@H](C)O)C(=O)N[C@@H](CC(=O)O)C(=O)NC(C)(C)C(=O)N[C@@H](CCCCN)C(=O)N[C@@H](CCCNC(=N)N)C(=O)N[C@@H](C)C(=O)N[C@@H](CCC(N)=O)C(=O)N[C@@H](CCC(=O)O)C(=O)N[C@@H](Cc1ccccc1)C(=O)N[C@H](C(=O)NC(C)(C)C(=O)N[C@@H](Cc1c[nH]c2ccccc12)C(=O)N[C@@H](CC(C)C)C(=O)N[C@@H](CCC(=O)O)C(=O)N[C@@H](CC(=O)O)C(=O)N[C@@H](CCC(=O)O)C(=O)N1CCC[C@H]1C(=O)N[C@@H](CO)C(=O)N[C@@H](CO)C(=O)N[C@@H](CCCCN)C(=O)N[C@@H](CCC(N)=O)C(=O)N1CCC[C@H]1C(=O)N1CCC[C@H]1C(=O)N1CCC[C@H]1C(=O)N[C@@H](CO)C(=O)O)C(C)C
- hGLP1 pEC50 (cAMP) [1]: < 9 pEC50
- hGCGR pEC50 (cAMP) [2]: 12.2 pEC50
